Measurements reported in FireProtDB (doi:10.1006/jmbi.2000.3776).

B1: Major outer membrane lipoprotein Lpp, P69776 (parent)
chain: MKATKLVLGAVILGSTLLAGCSSNAKIDQLSSDVQTLNAKVDQLSNDVNAMRSDVQAAKDDAARANQRLDNMATKYRK

Variants of: B1
Conditions: Escherichia coli (strain K12), pH 7, CD, structure 1EQ7, whole UniProt chain shown; for ddG of mutation (higher = less stable) / unfolding free energy: 4 °C, GdnHCl, PBS; for Tm / change of melting temperature, mutant - wild type (higher = more stable): Thermal, Sodium phosphate 50mM, NaCl 150mM

| Variant | ddG of mutation (higher = less stable) [kcal/mol] | unfolding free energy [kcal/mol] | Tm [°C] | change of melting temperature, mutant - wild type (higher = more stable) [°C] |
| --- | --- | --- | --- | --- |
| S23A | 0.8 | 19.7 | 64 | -3 |
| Y76A | 1.1 | 19.4 | 63 | -4 |
